Experimental findings from PMC8130932 (PLoS Pathogens, 2021) are described below.

Changes are numbered by the printed parent chain.

The target in experiment [1] is T1, SARS-CoV-2 spike glycoprotein, full-length, prefusion-stabilised, on MDCK-SIAT1 cells (SARS-CoV-2, reference sequence, UniProt P0DTC2, 986KV987 to 986PP987 | 682RRAR685 to 682GSAG685).
T1 construct: also called MDCK-Spike
Put plainly: flow cytometry on cells. The conditions noted are these: one partner purified. A general note: Flow cytometry measures light scatter and fluorescence of single cells or particles in a stream.

Experiment [2] deals with T2, SARS-CoV-2 spike glycoprotein S1+S2 extracellular domain (SARS-CoV-2, reference sequence, UniProt P0DTC2).
T2 construct: also called full-length spike glycoprotein ectodomain
Put plainly: ELISA. Background: ELISA stands for enzyme-linked immunosorbent assay.

B1: FD 11E (antibody, V domains shown)
VH: EVQLVESGGGLVKPGGSLRLSCAASGFTFSSYSMNWVRQAPGKGLEWVSSISSSSSYIYYADSVKGRFTISRDNAKNSLYLQMNSLRAEDTAVYYCASLAAAGPETYYYYGMDVWGQGTMVTVSS
VL: not shown
notes: source: HEK293T, transfected; culture supernatant or purified
B1: in experiment [1], the binding result was “binds”. Besides, in experiment [2], the OD450 is 1.45 OD450.

B2: FD 1E (antibody, V domains shown)
VH: B1 VH with V5L
VL: not shown
notes: as for B1
On to B2, for which the binding result in experiment [1] was “binds”. In experiment [2], the OD450 worked out at 1.45 OD450.

B3: FD 10A (antibody, V domains shown)
VH: EVQLVESGGGLVQPGGSLRLSCAASGFTFSSYWMHWVRQAPGKGLVWVSRINSDGSSTSYADSVKGRFTISRDNAKNTLYLQMNSLRAEDTAVYYCANMAFDIWGQGTMVTVSS
VL: not shown
notes: as for B1
Consider B3, for which the OD450 in experiment [2] amounted to 1.78 OD450.

B4: FI 3A (antibody, V domains shown)
VH: EVQLLESGGGLIQPGGSLRLSCAASGFTVSSNYMSWVRQAPGKGLEWVSVIYSGGSTYYADSVKGRFTISRDNSKNTLYLQMNSLRAEDTAVYYCARDHVRPGMNIWGQGTMVTVSS
VL: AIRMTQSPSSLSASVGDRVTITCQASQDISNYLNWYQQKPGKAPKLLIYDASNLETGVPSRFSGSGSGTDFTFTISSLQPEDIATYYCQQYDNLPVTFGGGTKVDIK
notes: as for B1
Consider B4, for which the binding result in experiment [1] is “binds”. The same molecule yielded an OD450 in experiment [2] of 1.6 OD450.

B5: EW 9B (antibody, V domains shown)
VH: EVQLVQSGAEVKKPGASVKVSCKASGYTFTSYYMHWVRQAPGQGLEWMGIINPSGGSTSYAQKFQGRVTMTRDTSTSTVYMELSSLRSEDTAVYYCAREDGVVPAANLMISLEDYYYYGMDVWGQGTTVTVSS
VL: EIVLTQSPATLSLSPGERATLSCRASQSVSSYLAWYQQKPGQAPRLLIYDASNRATGIPARFSGSGSGTDFTLTISSLEPEDFAVYYCQQRSNWPLTFGGGTKVDIK
notes: as for B1
For B5, the OD450 in experiment [2] was determined as 0.22 OD450.

B6: FD 1D (antibody, V domains shown)
VH: EVQLVESGGGVVQPGRSLRLSCAASGFTFSSYAMHWVRQAPGKGLEWVAVISYDGSNKYYADSVKGRFTISRDNSKNTLYLQMNSLRAEDTAVYYCARAGSGSYLNWFDPWGQGTLVTVSS
VL: B5 VL with L96I, G100Q, K103R, V104L, D105E
notes: as for B1
Molecule B6 showed an OD450 in experiment [2] of 0.4 OD450.

B7: FD 11C (antibody, V domains shown)
VH: EVQLLESGPGLVKPSETLSLTCTVSGGSISSSSYYWGWIRQPPGKGLEWIGSIYYSGSTYYNPSLKSRVTISVDTSKNQFSLKLSSVTAADTAVYYCAREYYYGSETKKYYYYYGMDVWGQGTTVTVSS
VL: not shown
notes: as for B1
As for B7, the binding result in experiment [1] was “binds”. The OD450 in experiment [2] stood at 1.2 OD450.

B8: FJ 1C (antibody, V domains shown)
VH: QVQLQESGPGLVKPSETLSLTCTVSGYSISSGYYWGWIRQPPGKGLEWIGSIYHSGSTYYNPSLKSRVTISVDTSKNQFSLKLSSVTAADTAVYYCARDKALLWFGELFTNLFDYWGQGTLVTVSS
VL: QSALTQPASVSGSPGQSITISCTGTSSDVGGYNYVSWYQQHPGKAPKLMIYEVSNRPSGVSNRFSGSKSGNTASLTISGLQAEDEANYYCSSYTSSSTLVFGGGTKLTVL
notes: as for B1
B8 had an OD450 in experiment [2] of 1.61 OD450.

B9: FD 7D (antibody, V domains shown)
VH: EVQLVESGAEVKKPGESLRISCKGSGYSFTSYWISWVRQMPGKGLEWMGRIDPSDSYTNYSPSFQGHVTISADKSISTAYLQWSSLKASDTAMYYCARHSDCSSTSCYFVDAFDIWGQGTMVTVSS
VL: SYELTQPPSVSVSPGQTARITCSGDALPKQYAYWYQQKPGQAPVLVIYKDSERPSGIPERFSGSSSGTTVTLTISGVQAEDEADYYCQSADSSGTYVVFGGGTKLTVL
notes: as for B1
With B9, the OD450 in experiment [2] stood at 1.44 OD450.

B10: FN 12A (antibody, V domains shown)
VH: QVQLVQSGAEVKKPGSSVKVSCKASGGTFSSYAISWVRQAPGQGLEWMGRIIPILGIANYAQKFQGRVTITADKSTSTAYMELSSLRSEDTAVYYCARSGCSSTSCPSNLYYYYYGMDVWGQGTTVTVSS
VL: QSVLTQPPSVSAAPGQKVTISCSGSSSNIGNNYVSWYQQLPGTAPKLLIYDNNKRPSGIPDRFSGSKSGTSATLGITGLQTGDEADYYCGTWDSSLSALVFGGGTKLTVL
notes: as for B1
For the molecule B10, the OD450 in experiment [2] worked out at 2.24 OD450.

B11: FG 12C (antibody, V domains shown)
VH: EVQLVESGGGLVQPGRSLRLSCAASGFTFDDYAMHWVRQAPGKGLEWVSGISWNSGSIGYADSVKGRFTISRDNAKNSLYLQMNSLRAEDTALYYCAKDMRVHDYGDYYFDYWGQGTLVTVSS
VL: SYELTQPPSVSVAPGKTARITCGGNNIGSKSVHWYQQKPGQAPVLVIYYDSDRPSGIPERFSGSNSGNTATLTISRVEAGDEADYYCQVWDSSSDHPVFGGGTKLTVL
notes: as for B1
Regarding B11, the OD450 in experiment [2] was 1.74 OD450.

B12: FM 1A (antibody, V domains shown)
VH: EVQLLESGGGVVQPGRSLRLSCAASGFTFSSYGMHWVRQAPGKGLEWVAVIWYDGSNKYYADSVKGRFTISRDNSKNTLYLQMNSLRAEDTAVYYCAREGAVGATRGFDYWGQGTLVTVSS
VL: B11 VL with K16Q, I47V, Y49D, H96Q, P97G
notes: as for B1
For the molecule B12, in experiment [2], the OD450 was found to be 0.25 OD450.

B13: FN 8C (antibody, V domains shown)
VH: QVQLVESGGGVVQPGRSLRLSCAASGFTFSSYGMHWVRQAPGKGLEWVAVISYDGSNKYYADTVKGRFTISRDNSKNTLYLQMNSLRAEDTAVYYCARERTYYDILTGYRHYYGMDVWGQGTTVTVSS
VL: B11 VL with K16Q, I47V, Y49D, P97W
notes: as for B1
The molecule B13 gave an OD450 in experiment [2] of 0.54 OD450.

B14: FJ 10B (antibody, V domains shown)
VH: QVQLVQSGAEVKKPGESLRISCKGSGYSFTSYWISWVRQMPGKGLEWMGRIDPSDSYTNYSPSFQGHVTISADKSISTAYLQWSSLKASDTAMYYCARLDPRYGPDYYGMDVWGQGTTVTVSS
VL: AIRMTQSPSSLSASVGDRVTITCRASQSISSYLNWYQQKPGKAPKLLIHAASSLQSGVPSRFSGSGSGTDFTLTMSSLQPEDFATYYCQQSYSTPLTFGGGTKVEIR
notes: as for B1
Molecule B14 showed an OD450 in experiment [2] of 1.48 OD450.

B15: FD 11A (antibody, V domains shown)
VH: EVQLVESGGGVVQPGRSLRLSCAASGFTFSSYGMHWVRQAPGKGLEWVAVIWYDGSNKYYADSVKGRFTISRDNSKNTLYLQMNSLRAEDTAVYYCAKGPDILTGYYNYYYYGMDVWGQGTMVTVSS
VL: QSVLTQPPSVSGAPGQRVTISCTGSSSNIGAGYDVHWYQQLPGTAPKLLIYGNSNRPSGVPDRFSGSKSGTSASLAITGLQAEDEADYYCQSYDSSLSGFYVVFGGGTKLTVL
notes: as for B1
Turning to B15, the binding result in experiment [1] was “binds”. For the same molecule, the OD450 in experiment [2] amounted to 1.64 OD450.

B16: FJ 4E (antibody, V domains shown)
VH: QVQLVESGPGLVKPSETLSLTCSVSGGSISSGTYYWSWIRQQPGKGLEWIGYIYNTGRPYYNPFLKSRITISVDSSKNQFSLKLTSVTAADTAVYYCARDEYDSSDSGIQGHWFDPWGQGTLVTVSS
VL: AIRMTQSPSSLSASVGDRVTITCRTSQNINSFLNWYQQKPGKGPNLLIYGAFTLQSGVPSRFSGSGSGTDFTLTISSLQPEDFATYFCQQSYSTPWTFGQGTKVEIK
notes: as for B1
For B16, the OD450 in experiment [2] is 0.26 OD450.

B17: FD 8B (antibody, V domains shown)
VH: EVQLLESGAEVKKPGASVKVSCKVSGYTLTELSMHWVRQAPGKGLEWMGGFDPEDGETIYAQKFQGRVTMTEDTSTDTAYMELSSLRSEDTAVYYCATAAAINCSSTSCYYYYYYYGMDVWGQGTTVTVSS
VL: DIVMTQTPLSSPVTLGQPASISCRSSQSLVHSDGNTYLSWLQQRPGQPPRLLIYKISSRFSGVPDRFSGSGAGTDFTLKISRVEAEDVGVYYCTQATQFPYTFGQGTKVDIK
notes: as for B1
On to B17, for which the OD450 in experiment [2] was found to be 1.1 OD450.

B18: FD 5D (antibody, V domains shown)
VH: EVQLVESGGGLVQPGGSLRLSCAASGFTFSSYSMNWVRQAPGKGLEWVSYISSSSSTIYYADPVKGRFTISRDNAKNSLYLQMNSLRAEDTAVYYCASPGGITAAGTSVLFGYYGMDVWGQGTMVTVSS
VL: not shown
notes: as for B1
Regarding B18, the OD450 in experiment [2] amounted to 1.83 OD450.
